{"source": "patent JP2014043405A", "about": "(dated 2014)", "binders": {"B1": {"name": "IL6R-BP478/IL6R-L (antibody)", "chain 1": "QVQLQESGPGLVKPSETLSLTCAVSGHSISHDHAWSWVRQPPGEGLEWIGFISYSGITNYNPSLQGRVTISRDNSKNTLYLQMNSLRAEDTAVYYCARSLARTTAMDYWGEGTLVTVSSASTKGPSVFPLAPCSRSTSESTAALGCLVKDYFPEPVTVSWNSGALTSGVHTFPAVLQSSGLYSLSSVVTVPSSSLGTKTYTCNVDHKPSNTKVDKRVESKYGPPCPPCPAPDLLGDDSVFLFPPKPKDTLMISRTPEVTCVVVDVSDEDGEVKFNWYVDGVEVHNAKTKPREEQDNSTYRVVSVLTVLHQDWLNGKEYKCKVSNKALPRPIEKTISKAKGQPREPQVYTLPPSRDELTKNQVSLTCLVKGFYPSDIAVEWESNGQPENNYKTTPPVLDSDGSFFLYSKLTVDKSRWQQGNVFSCSVMHEALHNHYTQESLSLSP", "chain 2": "not shown"}, "B2": {"name": "Fv4-IgG1-F157 (antibody)", "heavy": "QVQLQESGPGLVKPSETLSLTCAVSGHSISHDHAWSWVRQPPGEGLEWIGFISYSGITNYNPSLQGRVTISRDNSKNTLYLQMNSLRAEDTAVYYCARSLARTTAMDYWGEGTLVTVSSASTKGPSVFPLAPSSKSTSGGTAALGCLVKDYFPEPVTVSWNSGALTSGVHTFPAVLQSSGLYSLSSVVTVPSSSLGTQTYICNVNHKPSNTKVDKKVEPKSCDKTHTCPPCPAPELLGGPSVFLFPPKPKDTLMISRTAEVTCVVVDVSHEDPEVKFNWYVDGVEVHNAKTKPREEQYNSTYRVVSVLTPLHQDWLNGKEYKCKVSNKALPAPIEKTISKAKGQPREPQVYTLPPSRDELTKNQVSLTCLVKGFYPSDIAVEWESNGQPENNYKTTPPVLDSDGSFFLYSKLTVDKSRWQQGNVFSCSVLHEALHYHYTQKSLSLSP", "light": "DIQMTQSPSSLSASVGDSVTITCQASTDISSHLNWYQQKPGKAPELLIYYGSHLLSGVPSRFSGSGSGTDFTFTISSLEAEDAATYYCGQGNRLPYTFGQGTKVEIERTVAAPSVFIFPPSDEQLKSGTASVVCLLNNFYPREAKVQWKVDNALQSGNSQESVTEQDSKDSTYSLSSTLTLSKADYEKHKVYACEVTHQGLSSPVTKSFNRGEC", "notes": "also called VH3-IgG1-F157/VL3-CK"}, "B3": {"name": "mPM1-mIgG1-mF3 (antibody)", "heavy": "DVQLQESGPVLVKPSQSLSLTCTVTGYSITSDHAWSWIRQFPGNKLEWMGYISYSGITTYNPSLKSRISITRDTSKNQFFLQLNSVTTGDTSTYYCARSLARTTAMDYWGQGTSVTVSSAKTTPPSVYPLAPGSAAQTNSMVTLGCLVKGYFPEPVTVTWNSGSLSSGVHTFPAVLQSDLYTLSSSVTVPSSTWPSETVTCNVAHPASSTKVDKKIVPRDCGCKPCICTVPEVSSVFIFPPKPKDVLYITLEPKVTCVVVDISKDDPEVQFSWFVDDVEVHTAQTQPREEQFNSTFRSVSELPIMHQDWLNGKEFKCRVNSAAFPAPIEKTISKTKGRPKAPQVYTIPPPKEQMAKDKVSLTCMITDFFPEDITVEWQWNGQPAENYKNTQPIMDTDGSYFVYSKLNVQKSNWEAGNTFTCSVLHEGLKFHHTEKSLSHSPGK", "light": "DIQMTQTTSSLSASLGDRVTISCRASQDISSYLNWYQQKPDGTIKLLIYYTSRLHSGVPSRFSGSGSGTDYSLTINNLEQEDIATYFCQQGNTLPYTFGGGTKLEIKRADAAPTVSIFPPSSEQLTSGGASVVCFLNNFYPKDINVKWKIDGSERQNGVLNSWTDQDSKDSTYSMSSTLTLTKDEYERHNSYTCEATHKTSTSPIVKSFNRNEC", "notes": "mouse IgG1; also called mPM1H-mIgG1-mF3/mPM1L-mk1"}, "B4": {"name": "IL6R-BP495/IL6R-L (antibody)", "chain 1": "QVQLQESGPGLVKPSETLSLTCAVSGHSISHDHAWSWVRQPPGEGLEWIGFISYSGITNYNPSLQGRVTISRDNSKNTLYLQMNSLRAEDTAVYYCARSLARTTAMDYWGEGTLVTVSSASTKGPSVFPLAPSSKSTSGGTAALGCLVKDYFPEPVTVSWNSGALTSGVHTFPAVLQSSGLYSLSSVVTVPSSSLGTQTYICNVNHKPSNTKVDKKVEPKSCDKTHTCPPCPAPELLGDDSVFLFPPKPKDTLMISRTPEVTCVVVDVGEEDGEVKFNWYVDGVEVHNAKTKPREEQDNSTYRVVSVLTVLHQDWLNGKEYKCKVSNKALPRPIEKTISKAKGQPREPQVYTLPPSRDELTKNQVSLTCLVKGFYPSDIAVEWESNGQPENNYKTTPPVLDSDGSFFLYSKLTVDKSRWQQGNVFSCSVMHEALHNHYTQESLSLSP", "chain 2": "not shown"}, "B5": {"name": "IL6R-BP489/IL6R-L (antibody)", "chain 1": "B4 chain 1 with E235D, V266I, G269A, P398M", "chain 2": "not shown"}, "B6": {"name": "IL6R-BP480/IL6R-L (antibody)", "chain 1": "B4 chain 1 with E235D, V268L, G269S, E271D, D298Y, R332A", "chain 2": "not shown"}, "B7": {"name": "IL6R-BP426/IL6R-L (antibody)", "chain 1": "B4 chain 1 with E235D, G269A, E271D, D298Y", "chain 2": "not shown"}}, "key": {"ヒトFcγRIIa (R) [1]": {"target": "T1, ヒトFcγRIIa (R) (human, UniProt P12318 34-217)", "T1 construct": "extracellular domain; N-glycans trimmed with Endo F1/F2/F3 for the crystals; also called FcγRIIa R型", "T1 sequence (looked up)": "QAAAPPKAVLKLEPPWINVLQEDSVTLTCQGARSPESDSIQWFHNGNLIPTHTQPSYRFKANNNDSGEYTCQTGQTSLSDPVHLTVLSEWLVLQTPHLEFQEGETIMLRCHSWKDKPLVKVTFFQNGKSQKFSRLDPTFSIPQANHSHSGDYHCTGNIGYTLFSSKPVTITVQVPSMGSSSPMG", "assay": "SPR, KD; reference IL6R-BP230/IL6R-L"}, "ヒトFcγRIIb [2]": {"target": "T2, ヒトFcγRIIb (human, UniProt P31994 43-217)", "T2 construct": "extracellular domain; for the crystals it was expressed with kifunensine and its N-glycans trimmed with Endo F1; also called FcγRIIb細胞外領域", "T2 sequence (looked up)": "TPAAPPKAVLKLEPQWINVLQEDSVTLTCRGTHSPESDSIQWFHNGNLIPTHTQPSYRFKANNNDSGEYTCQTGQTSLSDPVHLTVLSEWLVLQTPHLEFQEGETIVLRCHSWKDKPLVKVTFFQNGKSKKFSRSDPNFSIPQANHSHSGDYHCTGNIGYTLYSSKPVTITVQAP", "assay": "SPR, KD; reference IL6R-BP230/IL6R-L"}, "ヒトFcγRIIb [3]": {"target": "T2, ヒトFcγRIIb", "assay": "SPR, figure legend (Fig. 6)"}, "マウスFcγRIIb [4]": {"target": "T3, マウスFcγRIIb (mouse, UniProt P08101 30-210, limits assumed)", "T3 construct": "also called mouse FcγRIIb", "T3 sequence (looked up)": "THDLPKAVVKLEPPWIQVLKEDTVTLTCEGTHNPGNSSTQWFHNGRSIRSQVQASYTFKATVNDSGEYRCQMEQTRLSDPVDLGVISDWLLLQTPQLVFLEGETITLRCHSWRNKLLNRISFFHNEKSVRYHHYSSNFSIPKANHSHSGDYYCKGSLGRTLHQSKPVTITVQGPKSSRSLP", "assay": "SPR, Biacore; antibody captured on immobilised human FcRn, FcγR as analyte, pH 7.4, 25C"}, "マウスFcγRI [5]": {"target": "T4, マウスFcγRI (mouse, UniProt P26151 25-297, limits assumed)", "T4 construct": "also called mouse FcγRI", "T4 sequence (looked up)": "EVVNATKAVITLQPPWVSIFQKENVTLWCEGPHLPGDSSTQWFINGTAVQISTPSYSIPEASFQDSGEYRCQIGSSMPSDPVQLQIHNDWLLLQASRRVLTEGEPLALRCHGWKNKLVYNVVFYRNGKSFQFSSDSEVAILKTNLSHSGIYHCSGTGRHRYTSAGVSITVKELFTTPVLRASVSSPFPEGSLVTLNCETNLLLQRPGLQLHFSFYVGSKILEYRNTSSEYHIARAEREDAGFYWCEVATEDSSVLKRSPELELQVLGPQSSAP", "assay": "SPR, Biacore; antibody captured on immobilised human FcRn, FcγR as analyte, pH 7.4, 25C"}, "マウスFcγRIII [6]": {"target": "T5, マウスFcγRIII (mouse, UniProt P08508 31-215, limits assumed)", "T5 construct": "also called mouse FcγRIII", "T5 sequence (looked up)": "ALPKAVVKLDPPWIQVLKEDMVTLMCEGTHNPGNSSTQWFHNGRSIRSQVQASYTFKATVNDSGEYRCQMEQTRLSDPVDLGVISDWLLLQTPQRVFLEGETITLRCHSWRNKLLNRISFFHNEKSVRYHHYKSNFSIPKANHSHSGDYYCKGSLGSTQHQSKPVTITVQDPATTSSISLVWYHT", "assay": "SPR, Biacore; antibody captured on immobilised human FcRn, FcγR as analyte, pH 7.4, 25C"}, "ヒトFcγRIa": {"target": "ヒトFcγRIa (human, UniProt P12314 16-292)", "sequence (P12314 16-292)": "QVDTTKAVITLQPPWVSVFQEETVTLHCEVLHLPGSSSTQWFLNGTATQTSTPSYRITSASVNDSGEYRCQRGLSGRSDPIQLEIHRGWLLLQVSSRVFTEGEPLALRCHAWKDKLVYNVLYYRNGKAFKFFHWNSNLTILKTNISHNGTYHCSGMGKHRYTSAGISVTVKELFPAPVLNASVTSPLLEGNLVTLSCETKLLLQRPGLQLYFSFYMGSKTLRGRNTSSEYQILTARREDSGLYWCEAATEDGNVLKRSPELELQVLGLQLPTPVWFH", "assay": "SPR, figure legend (Fig. 3)"}, "ヒトFcγRIIa (H)": {"target": "T6, ヒトFcγRIIa (H) (human, UniProt P12318 34-217)", "T6 construct": "extracellular domain; also called FcγRIIa H型", "T6 sequence (looked up)": "T1 sequence (looked up) with R134H", "assay": "SPR, figure legend (Fig. 5)"}, "ヒトFcγRIIa (R) [7]": {"target": "T1, ヒトFcγRIIa (R)", "assay": "SPR, figure legend (Fig. 4)"}, "ヒトFcRn": {"target": "T7, ヒトFcRn (human, UniProt P55899 24-290; P61769 21-119, limits assumed)", "T7 construct": "also called human FcRn; complex of human FcRn and human beta-2 microglobulin", "T7 sequence (P55899 24-290 limits assumed, chain 1 of 2)": "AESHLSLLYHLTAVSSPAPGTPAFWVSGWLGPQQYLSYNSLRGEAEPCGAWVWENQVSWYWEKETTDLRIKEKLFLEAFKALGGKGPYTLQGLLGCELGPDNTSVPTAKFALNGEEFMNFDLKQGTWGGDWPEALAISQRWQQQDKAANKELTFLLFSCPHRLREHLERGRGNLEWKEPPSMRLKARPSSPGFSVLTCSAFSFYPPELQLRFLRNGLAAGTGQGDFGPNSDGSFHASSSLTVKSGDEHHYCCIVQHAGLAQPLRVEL", "T7 sequence (P61769 21-119 limits assumed, chain 2 of 2)": "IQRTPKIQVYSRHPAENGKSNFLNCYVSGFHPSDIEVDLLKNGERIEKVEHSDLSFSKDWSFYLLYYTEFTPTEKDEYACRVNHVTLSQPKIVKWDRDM", "assay": "SPR, figure legends of Figs. 3-11"}, "ヒトFcγRIIIa (F)": {"target": "T8, ヒトFcγRIIIa (F) (human, UniProt P08637 17-208)", "T8 construct": "extracellular domain", "T8 sequence (P08637 17-208)": "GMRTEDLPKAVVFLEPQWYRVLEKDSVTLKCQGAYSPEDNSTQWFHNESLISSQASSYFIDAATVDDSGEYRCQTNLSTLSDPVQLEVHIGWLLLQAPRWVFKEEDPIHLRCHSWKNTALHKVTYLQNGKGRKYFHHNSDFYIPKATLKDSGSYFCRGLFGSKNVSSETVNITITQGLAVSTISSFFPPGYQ", "assay": "SPR, figure legend (Fig. 7)"}, "マウスFcγRIIb [8]": {"target": "T3, マウスFcγRIIb", "assay": "SPR, Biacore; antibody captured on immobilised mouse FcRn, FcγR as analyte, pH 7.4, 25C"}, "マウスFcγRI [9]": {"target": "T4, マウスFcγRI", "assay": "SPR, Biacore; antibody captured on immobilised mouse FcRn, FcγR as analyte, pH 7.4, 25C"}, "マウスFcγRIII [10]": {"target": "T5, マウスFcγRIII", "assay": "SPR, Biacore; antibody captured on immobilised mouse FcRn, FcγR as analyte, pH 7.4, 25C"}, "ヒトFcγRIIb [11]": {"target": "T2, ヒトFcγRIIb", "assay": "SPR, KD; reference IL6R-B3/IL6R-L; the lowest of the named variants"}, "ヒトFcγRIIb [12]": {"target": "T2, ヒトFcγRIIb", "assay": "SPR, KD; reference IL6R-B3/IL6R-L; the highest of the named variants"}, "ヒトFcγRIIb [13]": {"target": "T2, ヒトFcγRIIb", "assay": "SPR; KD for FcγRIIaH divided by KD for FcγRIIb"}}, "note": "Changes are numbered by the printed parent chain.", "data": [{"binder": "B1", "values": [{"measurement": "binding relative to IL6R-BP230/IL6R-L", "setting": "ヒトFcγRIIa (R) [1]", "result": 0.9, "unit": "fold"}, {"measurement": "fold enhancement of binding against IL6R-BP230/IL6R-L", "setting": "ヒトFcγRIIb [2]", "result": 1.1, "unit": "fold"}]}, {"binder": "B2", "values": [{"measurement": "binding result", "setting": "ヒトFcγRIIb [3]", "result": "binds"}, {"measurement": "binding result", "setting": "マウスFcγRIIb [4]", "result": "binds"}, {"measurement": "binding result", "setting": "マウスFcγRI [5]", "result": "binds"}, {"measurement": "binding result", "setting": "マウスFcγRIII [6]", "result": "binds"}, {"measurement": "binding result", "setting": "ヒトFcγRIa", "result": "binds"}, {"measurement": "binding result", "setting": "ヒトFcγRIIa (H)", "result": "binds"}, {"measurement": "binding result", "setting": "ヒトFcγRIIa (R) [7]", "result": "binds"}, {"measurement": "binding result", "setting": "ヒトFcRn", "result": "binds"}, {"measurement": "binding result", "setting": "ヒトFcγRIIIa (F)", "result": "binds"}]}, {"binder": "B3", "values": [{"measurement": "binding result", "setting": "マウスFcγRIIb [8]", "result": "binds"}, {"measurement": "binding result", "setting": "マウスFcγRI [9]", "result": "no binding"}, {"measurement": "binding result", "setting": "マウスFcγRIII [10]", "result": "binds"}]}, {"binder": "B4", "values": [{"measurement": "fold enhancement of binding, IL6R-B3/IL6R-L = 1", "setting": "ヒトFcγRIIb [11]", "result": 321, "unit": "fold"}]}, {"binder": "B5", "values": [{"measurement": "fold enhancement of binding, IL6R-B3/IL6R-L = 1", "setting": "ヒトFcγRIIb [12]", "result": 3100, "unit": "fold"}]}, {"binder": "B6", "values": [{"measurement": "KD (IIaH)/KD (IIb)", "setting": "ヒトFcγRIIb [13]", "result": 108, "unit": "ratio"}]}, {"binder": "B7", "values": [{"measurement": "KD (IIaH)/KD (IIb)", "setting": "ヒトFcγRIIb [13]", "result": 8360, "unit": "ratio"}]}]}
